Measured values as given in US20250326807A1 (published 2025).

Target: T1, Recombinantly expressed fused calprotectin (His6-linker-S100A9-linker-S100A8), product code B-RCAL, BÜHLMANN … (human, UniProt P06702 1-114; P05109 1-93)
T1 construct: Bought fusion protein; also called CP; human recombinant calprotectin
T1 sequence: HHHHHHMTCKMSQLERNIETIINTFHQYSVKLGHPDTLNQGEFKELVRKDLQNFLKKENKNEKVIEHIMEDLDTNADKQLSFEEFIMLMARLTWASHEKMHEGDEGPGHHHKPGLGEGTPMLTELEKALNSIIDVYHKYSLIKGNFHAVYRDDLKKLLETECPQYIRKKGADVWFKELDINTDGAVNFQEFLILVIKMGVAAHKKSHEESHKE
Test: fluorescence polarization, 20 nM fluorescent peptide, calprotectin titrated
Description: The reaction mixture was incubated at 30° C. for 1 hr, and the completion of the reaction was assessed by LCMS. The reaction was stopped by addition of HCOOH (200 μL) and the cyclized peptide was lyophilized. The final purification was performed as before with a reversed-phase C18 column (X-bridge peptide BEH C18 5 μm, 300 Å, 10×250 mm, Waters) applying a flow rate of 6 mL/min and an appropriate linear gradient in 40 min. Fractions containing the desired peptide were lyophilized. The purity of the peptides was assessed by analysing around 20 μg of peptide by RP-HPLC (1260 HPLC system, Agilent) using a C18 column (ZORBAX 300SB-C18, 5 μm, 300 Å, 4.6×250 mm, Agilent). Peptides were run at a flow rate of 1 mL min⁻¹ with a linear gradient of 0-100% of solvent B over 15 min (A: 94.9% H₂O, 5% ACN and 0.1% TFA; B: 99.9% ACN and 0.1% TFA). The mass was determined by electrospray ionization mass spectrometry (ESI-MS) in positive ion mode on a single quadrupole liquid chromatography mass spectrometer (LCMS-2020, Shimadzu). […] Fluorescence anisotropy was measured on a microwell plate reader (Infinite M200Pro, Tecan), with a filter for excitation at 485 nm and emission at 535 nm. Dissociation constant (Kd) was calculated using the following equation on Prism 5 (GraphPad): […]

- Kd: ~24 nM
B1: Peptide 3 Isomer 1 (RCPECVAFPMFQCHWYCG with cross-linked neighboring cysteines) (peptide)
peptide: RCPECVAFPMFQCHWYCG
modifications: neighboring cysteines cross-linked by chemical linkers (linker not named); N-terminal 5(6)-carboxyfluorescein; synthesised on rink amide AM resin
notes: Both pairs of neighboring cysteines bridged
